# Results taken from patent publication US7977317B2, “Compositions and methods for modulating blood-brain barrier transport” (Raptor Pharmaceutical Inc., priority 2001, dated 2011).
# B1: p97: recombinant human melanotransferrin (p97), provided by Synapse Technologies (protein, UniProt P08582 20-709, looked up)
# Melanotransferrin: GMEVRWCATSDPEQHKCGNMSEAFREAGIQPSLLCVRGTSADHCVQLIAAQEADAITLDGGAIYEAGKEHGLKPVVGEVYDQEVGTSYYAVAVVRRSSHVTIDTLKGVKSCHTGINRTVGWNVPVGYLVESGRLSVMGCDVLKAVSDYFGGSCVPGAGETSYSESLCRLCRGDSSGEGVCDKSPLERYYDYSGAFRCLAEGAGDVAFVKHSTVLENTDGKTLPSWGQALLSQDFELLCRDGSRADVTEWRQCHLARVPAHAVVVRADTDGGLIFRLLNEGQRLFSHEGSSFQMFSSEAYGQKDLLFKDSTSELVPIATQTYEAWLGHEYLHAMKGLLCDPNRLPPYLRWCVLSTPEIQKCGDMAVAFRRQRLKPEIQCVSAKSPQHCMERIQAEQVDAVTLSGEDIYTAGKTYGLVPAAGEHYAPEDSSNSYYVVAVVRRDSSHAFTLDELRGKRSCHAGFGSPAGWDVPVGALIQRGFIRPKDCDVLTAVSEFFNASCVPVNNPKNYPSSLCALCVGDEQGRNKCVGNSQERYYGYRGAFRCLVENAGDVAFVRHTTVFDNTNGHNSEPWAAELRSEDYELLCPNGARAEVSQFAACNLAQIPPHAVMVRPDTNIFTVYGLLDKAQDLFGDDHNKNGFKMFDSSNYHGQDLLFKDATVRAVPVGEKTTYRGWLGLDYVAALEGMSSQQC
# Experiments:
# [1] = test system: BBCE; experiment: Transcellular co-localization of p97 with clathrin in BBCE; assay type: cell-based, bovine; settings: clathrin versus caveolin
# Text: FIG. 21 depicts the transcellular co-localization of p97 and clathrin turning transcytosis.
# Transcellular localization of p97 and clathrin was examined in BBCE as the p97 moved from the luminal to abluminal side of the BBB model (FIG. 21). The data are indicative of a co-migration of p97 and clathrin. As a control for the effect of the Alexa label, the behavior of p97 and p97-alexa were compared. (data not shown).
# [2] = test system: astrocytes and astrocytoma cells; experiment: Uptake of [125I]-p97 in rat astrocytes and astrocytoma cells; assay type: cell-based; settings: 50 nM p97, 2 h at 37° C. (FIG. 24)
# Experimental: FIG. 24. Uptake of p97 in rat astrocytes and astrocytoma cells. Cells were grown in monolayer in six-multiwell microplates at 37° C. under 5% CO2. Uptake of [^125I]-p97 was measured at 37° C. for 2 h in astrocytes and astrocytomas. The incubation medium contained [^125I]-p97 and a final concentration of 50 nM p97 in Ringer/Hepes solution. After incubation, the cell monolayer was washed three times with cold Ringer/Hepes solution. Triton X-100 0.1% was added and the [^125I]-p97 uptake was assessed in the Triton X-100 soluble fraction by TCA precipitation. Results represent means±SD (n=3, Astro; n=6, CTX and RG2; n=9, C6).
# Uptake of [^125I]-p97. Cells were grown in monolayer in six-multiwell microplates at 37° C. under 5% CO2. Uptake of [^125I]-p97 was measured at 37° C. for 2 h in astrocytes and astrocytomas. The incubation medium contained [^125I]-p97 and a final concentration of 50 nM P97 in Ringer/Hepes solution. The uptake of [^125I]-p97 was performed in presence or in absence of 5 μM cold-P97. After incubation, the cell monolayer was wash three times with cold Ringer/Hepes solution. Triton X-100 0.1% was added and the [^125I]-p97 uptake was assessed in the Triton X-100 soluble fraction by TCA precipitation.
# [3] = test system: LRP/LRP1B; experiment: Ligand binding and cross-linking, LRP/LRP1B immunodetection in U-87 cells; design: species or system human; settings: 4° C., cross-linked, non-reducing SDS-PAGE (FIG. 29)
# Experimental: FIG. 29. […] U-87 cells were grown in monolayer in six-multiwell microplates at 37° C. under 5% CO2. The cell monolayer were incubated at 4° C. with p97 or RAP in Ringer/Hepes solution. After incubation, cell monolayer was washed 3 times with cold-Ringer/Hepes solution and proteins were cross-linked with 1 mM DSS. After, cells were lysed and equal quantities of protein (25 μg) were subjected to SDS-PAGE under non-reducing conditions and electroblotted onto PVDF membranes. […] (n=2).
# Ligand-binding. Briefly, cells were incubated with [^125I]-p97 in Ringer/Hepes solution, in presence or in absence of 5 μM cold-P97 for 1 h at 4° C. After incubation, the cell monolayer was washed three times with cold Ringer/Hepes solution. After the ligand binding at 4° C., cell monolayer was washed three times with cold Ringer/Hepes solution and was incubated with DSS (Disuccinimidyl suberate) or Lomant's reagent DSP (Dithiobis(succinimidyl propionate)) from Pierce. After the cross-link, cells were lysed and proteins were separated by SDS-PAGE electrophoresis. Gels were fixed, dryed and exposed to Kodak films at −80° C. for about 3 weeks before developing. The cross-link was performed exactly as the manufacturer's protocol.
# [4] = test system: Cubilin; experiment: RT-PCR after p97 treatment in U-87 cells: Cubilin; assay type: cell-based, human; settings: 72 hours, RT-PCR (FIG. 35)
# Experimental: (§1) FIG. 35. Effect of p97 and RAP treatments in U-87 cells (RT-PCR). Cells (2×10^5) were plated onto six-multiwell microplates and grown at 37° C. under 5% CO2 with optimal culture medium supplemented with serum for 4 days. Treatment was performed in serum free medium for 72 hours. RNA isolation and RT-PCR were performed as described in the Examples. The amplified PCR products were electrophoresed on a 2% agarose gel and visualized under ultraviolet light. (n=2 for p97), (n=1 for RAP)
# (§2) FIG. 38. Effect of p97 and RAP treatments in U-87 cells on expression of cubulin (A), P97 (B) and Megalin (C). The amplified PCR products were electrophoresed on a 2% agarose gel and visualized under ultraviolet light. (n=1). Quantification was by densitometry of p97 and RAP treatments on the RNA levels of LRP1B, LRP, LDL-R, cubilin, endogenous p97 and megalin. Results are expressed as ratios of RNA levels between control and treated U-87 cells.
# (§3) RNA extraction. Cells in six-wells plate or in 75 cm^2 plastic tissue culture flasks were grown at 37° C. under 5% CO2 with optimal culture medium to 80-90% confluence. Total cellular RNA was preserved in Trizol (Gibco BRL, Burlington, ON). The solution are frozen at −80° C. until extraction. The solution was defroze and mixed with 5:1 chloroform for 3 minutes at room temperature. The suspension was centrifugated at 12000 g at 4° C. […]
# [5] = test system: Megalin; experiment: RT-PCR after p97 treatment in U-87 cells: Megalin; assay type: cell-based, human; settings: 72 hours, RT-PCR (FIG. 35)
# Experimental: as §1, §2, §3
molecule,measurement,setting,value
B1,Co-localization during endocytosis/transcytosis,[1],co-localize with clathrin
same,Specific uptake of p97 in astrocytoma cells over astrocytes,[2],greatly increased
same,Association with LRP/LRP1B,[3],high molecular weight dissociable complex
same,Expression of the Cubilin receptor,[4],induces the expression
same,Expression of the Megalin receptor,[5],not
